Assays:
[1] = tested on: Panc1 cells; test: MTT proliferation assay, soluble klotho protein and 5-FU; conditions: 5-FU 500 μM alone; 48 hr
Experimental: 3000 cells/well were plated in 96-well plates, cultured in the appropriate culture media, and treated for 48 hrs as indicated.
Medium alone served as control. 48 hr after incubation, cells were cultured for 2 hr with 500 μg/ml MTT reagent, the medium was aspirated, and the cells were dissolved in dimethyl sulfoxide (DMSO). Absorbance of the formazan product was measured by an enzyme-linked immunosorbent assay reader to provide a measure of viability.

[2] = tested on: AKT in MCF-7 cells; test: AKT phosphorylation after IGF-1 stimulation in klotho-silenced MCF-7 cells; type: cell-based, human; conditions: compared to siRNAc transfected cells
Source text: (§1) Klotho protein directed stealth siRNA duplex oligoribonucleotides and control siRNAs were both designed and purchased from Invitrogen. Lipofectamine 2000 (Invitrogen), and was used to transfect the cells with 100 pmoles of siRNA.
The effect of silencing of klotho protein in MCF-7 cells, using siRNA3, was also studied.

[3] = tested on: MCF-7 cells; test: MTT proliferation assay after klotho protein down-regulation by siRNA; type: cell-based, human; conditions: 48 h; compared to siRNAc; p<0.05
Experimental: as §1
The medium was aspirated, and the cells were dissolved by dimethyl sulfoxide (DMSO).
(§2) Three klotho protein-directed siRNAs were designed and tested for their ability to silence klotho protein expression in MCF-7 cells, compared to a control siRNA (siRNAc).

[4] = tested on: klotho protein mRNA; test: Silencing of klotho protein expression by siRNA in MCF-7 cells (mRNA levels); type: cell-based, human; conditions: MCF-7 cells transfected with siRNA
Source text: as §1
For breast cell studies, total RNA was extracted using the RNA isolation kit (Sigma) and processed to cDNA with RevertAid (Fermentas, Vilnius, Lithuania). Primers were designed using Primer Express (Applied Biosystems, Foster City, Calif.) and synthesized by IDT (Coralville, Iowa). […].
as §2

[5] = tested on: Panc1 cells; test: In vivo Panc1 tumors in athymic mice treated with sol-hKL or sol-hKL1; conditions: i.p. five days a week for five weeks; for tumor growth (tumor volume and weight): sol-hKL 2.5 μg/kg, sol-hKL1 10 or 25 μg/kg, p<0.05
Experimental: The in vivo growth inhibitory activity of sol-hKL1, compared to sol-hKL, on pancreatic cancer cells was examined (FIG. 17C-G). Panc1 cells were injected into one flank of athymic mice and mice were treated with intraperitoneal injections of either control vehicle (N=12), sol-hKL (2.5 μg/kg, N=7), or sol-hKL1 (10 μg/kg, N=6; 25 μg/kg, N=7), five days a week for five weeks. Weight of mice (FIG. 17C) and tumor volume (FIG. 17D) in control and treated groups were monitored weekly and tumor weight was measured on day of sacrifice (FIG. 17E).

[6] = Blood counts and chemistry of treated mice; type: in vivo; conditions: for glucose levels: after fasting, MiaPaCa2 xenograft experiment; for blood counts or liver function tests: data not shown; for hypophosphatemia in treated mice: mouse, in vivo
Experimental: The effects of sol-hKL and sol-hKL1 on blood counts and chemistry were also studied. For these studies, blood was withdrawn from control, sol-hKL-treated (2.5 μg/kg) or sol-hKL1-treated (10 μg/kg) mice, at the same day as sacrificing and tumor harvesting, following five weeks of treatment.

[7] = tested on: MiaPaCa2 cells; test: In vivo MiaPaCa2 tumors in athymic mice treated with sol-hKL or sol-hKL1; conditions: sol-hKL 2.5 μg/kg, sol-hKL1 10 μg/kg; for tumors completely regressed (number) / tumors completely regressed (percent): after four weeks
Experimental: A similar experiment, with minor differences, was also performed using MiaPaCa2 cells (FIGS. 17H, 17I). Cells were injected into both flanks of athymic mice and mice were treated with either a control vehicle (N=8), sol-hKL (2.5 μg/kg, N=8) or sol-hKL1 (10 μg/kg, N=8).

[8] = tested on: IGF-1R in MCF-7 cells; test: IGF-1R phosphorylation in MCF-7 cells treated with soluble klotho protein; type: cell-based, human; conditions: klotho 15 min, then IGF-1 12.5 nM
Source text: Soluble klotho protein was generated essentially as described (Kurosu et al., 2005). In brief, insect cells, which stably express V5-tagged soluble klotho protein, were generated using the Drosophila Expression System (Invitrogen). A cDNA fragment encoding the entire extracellular domain of mouse Klotho protein (amino acid residues 31 to 982 of SEQ ID NO: 3) was inserted into a pMT/BiP/V5-His expression vector, allowing inducible expression from metallothionein promoter and secretion of the recombinant protein with V5 and 6×His tags at the C-terminus into conditioned medium. The expression vector was transfected into Drosophila Schneider cells by the calcium phosphate method together with pCoHYGRO selection vector. […]
As klotho protein may also be shed and act as a circulating hormone (Kuro-o et al., 1997; Matsumura et al., 1998), the ability of soluble klotho protein to inhibit activation of the IGF-1 pathway in MCF-7 cells was tested. V5-tagged soluble klotho protein was generated as described under “Materials and Methods”, its expression and purity were examined using Coomassie staining and its concentration was determined (data not shown). MCF-7 cells were treated with klotho protein for 15 min and, stimulated with IGF-1 (12.5 nM, 15 min), and expression and phosphorylation of the IGF-1R was determined.

[9] = tested on: IGF-1 pathway in Panc1 cells; test: IGF-1 pathway in Panc1 cells treated with soluble klotho protein (immunoblot); type: cell-based, human; conditions: klotho 10 min, then IGF-1 12.5 nM, 15 min
Experimental: For pancreatic cells, protein extraction and Western blotting was performed as described (Wolf et al., 2008).
Since klotho protein is shed and may act as a circulating hormone, the ability of soluble klotho protein to inhibit activation of the IGF-1 pathway in Panc1 cells was tested. V5-tagged soluble klotho protein was generated as described [Kurosu H. et al., 2005]. Panc1 cells were treated with klotho protein for 10 min and stimulated with IGF-1 (12.5 nM, 15 min), and expression and phosphorylation of the IGF-1R, AKT and ERK1/2 was determined.

[10] = tested on: Panc1 cells; test: MTT viability assay, sol-hKL or sol-hKL1; type: cell-based, human; conditions: 48 hrs
Experimental: The activity of hKL1 was also tested. Panc1 cells were treated with either sol-hKL or sol-hKL1 for 48 hrs and viability was assessed after 48 hours by MTT assay (FIG. 17B).

[11] = five weeks of treatment, sol-hKL 2.5 μg/kg, sol-hKL1 10 μg/kg

Question: For O=c1[nH]cc(F)c(=O)[nH]1 [5-FLU, 5-Fluorouracil], which reduction in viability [1] is on record?
Answer: 50%

Question: Which “AKT phosphorylation following IGF-1 stimulation” value [2] does the source give for CACCAAGAGAGAUGAUGCCAAAUAU [siRNA3] here?
Answer: increased

Question: What about the “increase of proliferation of MCF-7 cells (MTT assay)” value [3] of the same molecule?
Answer: 2.5 fold

Question: And the “reduction of klotho protein expression (mRNA levels)” value [4]?
Answer: 88%

B1: sol-hKL: Soluble human Klotho protein (hKL) obtained from R&D Systems (protein, UniProt Q9UEF7 34-981, looked up)
extracellular domain: EPGDGAQTWARFSRPPAPEAAGLFQGTFPDGFLWAVGSAAYQTEGGWQQHGKGASIWDTFTHHPLAPPGDSRNASLPLGAPSPLQPATGDVASDSYNNVFRDTEALRELGVTHYRFSISWARVLPNGSAGVPNREGLRYYRRLLERLRELGVQPVVTLYHWDLPQRLQDAYGGWANRALADHFRDYAELCFRHFGGQVKYWITIDNPYVVAWHGYATGRLAPGIRGSPRLGYLVAHNLLLAHAKVWHLYNTSFRPTQGGQVSIALSSHWINPRRMTDHSIKECQKSLDFVLGWFAKPVFIDGDYPESMKNNLSSILPDFTESEKKFIKGTADFFALCFGPTLSFQLLDPHMKFRQLESPNLRQLLSWIDLEFNHPQIFIVENGWFVSGTTKRDDAKYMYYLKKFIMETLKAIKLDGVDVIGYTAWSLMDGFEWHRGYSIRRGLFYVDFLSQDKMLLPKSSALFYQKLIEKNGFPPLPENQPLEGTFPCDFAWGVVDNYIQVDTTLSQFTDLNVYLWDVHHSKRLIKVDGVVTKKRKSYCVDFAAIQPQIALLQEMHVTHFRFSLDWALILPLGNQSQVNHTILQYYRCMASELVRVNITPVVALWQPMAPNQGLPRLLARQGAWENPYTALAFAEYARLCFQELGHHVKLWITMNEPYTRNMTYSAGHNLLKAHALAWHVYNEKFRHAQNGKISIALQADWIEPACPFSQKDKEVAERVLEFDIGWLAEPIFGSGDYPWVMRDWLNQRNNFLLPYFTEDEKKLIQGTFDFLALSHYTTILVDSEKEDPIKYNDYLEVQEMTDITWLNSPSQVAVVPWGLRKVLNWLKFKYGDLPMYIISNGIDDGLHAEDDQLRVYYMQNYINEALKAHILDGINLCGYFAYSFNDRTAPRFGLYRYAADQFEPKASMKHYRKIIDSNGFPGPETLERFCPEEFTVCTECSFFHTRKS
modifications: extracellular domain
notes: Soluble human Klotho protein (hKL) obtained from R&D Systems
Question: Which “changes in weight or general health of mice” value [5] does the source give for B1 here?
Answer: No changes

Question: And the “tumor growth (tumor volume and weight)” value [5]?
Answer: significantly inhibited tumor growth

Question: What about the glucose levels [6] of the same molecule?
Answer: mildly increased

Question: What about the “blood urea, cholesterol and phosphate levels” value [6, 11] of the same molecule?
Answer: altered

Question: What about the “blood counts or liver function tests” value [6, 11] of the same molecule?
Answer: did not affect

Question: What about the “hypophosphatemia in treated mice” value [6] of the same molecule?
Answer: observed

Question: And the “tumors completely regressed (number)” value [7]?
Answer: two

Question: What about the “tumors completely regressed (percent)” value [7] of the same molecule?
Answer: 12%

B2: soluble klotho protein: V5-tagged entire extracellular domain of mouse Klotho protein (residues 31 to 982 of SEQ ID NO: 3) from Drosophila cells (protein)
chain: RCLSAEPGQGAQTWARFARAPAPEAAGLLHDTFPDGFLWAVGSAAYQTEGGWRQHGKGASIWDTFTHHSGAAPSDSPIVVAPSGAPSPPLSSTGDVASDSYNNVYRDTEGLRELGVTHYRFSISWARVLPNGTAGTPNREGLRYYRRLLERLRELGVQPVVTLYHWDLPQRLQDTYGGWANRALADHFRDYAELCFRHFGGQVKYWITIDNPYVVAWHGYATGRLAPGVRGSSRLGYLVAHNLLLAHAKVWHLYNTSFRPTQGGRVSIALSSHWINPRRMTDYNIRECQKSLDFVLGWFAKPIFIDGDYPESMKNNLSSLLPDFTESEKRLIRGTADFFALSFGPTLSFQLLDPNMKFRQLESPNLRQLLSWIDLEYNHPPIFIVENGWFVSGTTKRDDAKYMYYLKKFIMETLKAIRLDGVDVIGYTAWSLMDGFEWHRGYSIRRGLFYVDFLSQDKELLPKSSALFYQKLIEDNGFPPLPENQPLEGTFPCDFAWGVVDNYVQVDTTLSQFTDPNVYLWDVHHSKRLIKVDGVVAKKRKPYCVDFSAIRPQITLLREMRVTHFRFSLDWALILPLGNQTQVNHTVLHFYRCMISELVHANITPVVALWQPAAPHQGLPHALAKHGAWENPHTALAFADYANLCFKELGHWVNLWITMNEPNTRNMTYRAGHHLLRAHALAWHLYDDKFRAAQKGKISIALQADWIEPACPFSQNDKEVAERVLEFDIGWLAEPIFGSGDYPRVMRDWLNQKNNFLLPYFTEDEKKLVRGSFDFLAVSHYTTILVDWEKEDPMKYNDYLEVQEMTDITWLNSPSQVAVVPWGLRKVLNWLRFKYGDLPMYVTANGIDDDPHAEQDSLRIYYIKNYVNEALKAYVLDDINLCGYFAYSLSDRSAPKSGFYRYAANQFEPKPSMKHYRRIIDSNGFLGSGTLGRFCPEEYTVCTECGFFQTRK
modifications: V5 tag
Question: What does the source list for B2?
Answer: phosphorylation of the IGF-1 receptor [8]: inhibited; phosphorylation of IGF-1R, AKT and ERK1/2 [9]: inhibited phosphorylation

B3: sol-hKL1: Human KL1 (residues 34-549 of SEQ ID: 2) obtained from PeproTech Inc. (protein)
chain: EPGDGAQTWARFSRPPAPEAAGLFQGTFPDGFLWAVGSAAYQTEGGWQQHGKGASIWDTFTHHPLAPPGDSRNASLPLGAPSPLQPATGDVASDSYNNVFRDTEALRELGVTHYRFSISWARVLPNGSAGVPNREGLRYYRRLLERLRELGVQPVVTLYHWDLPQRLQDAYGGWANRALADHFRDYAELCFRHFGGQVKYWITIDNPYVVAWHGYATGRLAPGIRGSPRLGYLVAHNLLLAHAKVWHLYNTSFRPTQGGQVSIALSSHWINPRRMTDHSIKECQKSLDFVLGWFAKPVFIDGDYPESMKNNLSSILPDFTESEKKFIKGTADFFALCFGPTLSFQLLDPHMKFRQLESPNLRQLLSWIDLEFNHPQIFIVENGWFVSGTTKRDDAKYMYYLKKFIMETLKAIKLDGVDVIGYTAWSLMDGFEWHRGYSIRRGLFYVDFLSQDKMLLPKSSALFYQKLIEKNGFPPLPENQPLEGTFPCDFAWGVVDNYIQVSQLTKPISSLTKPYH
Question: With B3 as the molecule, how does the “changes in weight or general health of mice” value [5] read?
Answer: No changes

Question: And the “tumor growth (tumor volume and weight)” value [5]?
Answer: significantly inhibited tumor growth

Question: And the glucose levels [6]?
Answer: did not have any significant effect

Question: What about the “blood counts or liver function tests” value [6, 11] of the same molecule?
Answer: did not affect

Question: And the “hypophosphatemia in treated mice” value [6]?
Answer: not

Question: And the “tumors completely regressed (number)” value [7]?
Answer: four

Question: And the “tumors completely regressed (percent)” value [7]?
Answer: 25%

Question: What about the “tumor growth inhibition compared with sol-hKL” value [7] of the same molecule?
Answer: more effectively than sol-hKL

Question: What about the “concentration for 50% viability reduction relative to sol-hKL” value [10] of the same molecule?
Answer: 100 times

Question: And the “reduction of viability of Panc1 cells” value ([10]; p<0.005 vs control)?
Answer: 50%

Reference: patent US10555963B2, “Klotho protein and related compounds for the treatment and diagnosis of cancer” (TEL HASHOMER MEDICAL RESEARCH INFRASTRUCTURE AND SERVICES …, priority 2007, dated 2020)
